Laboratory results from US20260232732A1 (FUNDACI INSTITUT DE RECERCA CONTRA LA LEUC MIA JOSEP …, published 2026).
Where no end group is shown, it is not given here. The star is where a group is joined. Biotin = O=C1N[C@H]2[C@H](CS[C@H]2CCCCC(=O)*)N1

Experiments:
[1] = biological target: T1, naked peptide 1a MTPTDFTSPIPNMADDYGSESTSS (human); assay: ELISA, naked peptide coated
T1 construct: also called region 1-24
T1 peptide: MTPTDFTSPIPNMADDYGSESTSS
Protocol: (§1) The peptides were synthesized naked or with a N-terminal Biotin modification with a purity of >98%. All four scFvs were verified by ELISA that can be detected with anti-His antibodies. ELISA was performed for scFv-peptide binding validation. Briefly, naked peptides were coated (50 μg/mL) in 0.58M carbonate-bicarbonate buffer pH9.5, 100 μL/well, 4° C. O/N. Then after blocking (3% BSA-PBS, 300 μL/well 37° C. 1.5 h) and washing (PBS+Tween-20 0.05% v/v (0.05% PBST), wells were incubated with each purified scFv antibody at concentration of 1 μg/mL in PBS at 37° C. 1 h. After washing (0.05% PBST), wells were incubated with secondary antibodies (goat anti-His IgG-HRP) in PBS, 37° C., 30 min. After washing, and incubation with TMB substrate, reactions were stopped with 2M HCl and reading was quantified at OD450.

[2] = biological target: T2, naked peptide 1b MEDYVNFNFTDFYCEKNNVRQFAS (human); assay: ELISA, naked peptide coated
T2 construct: also called region amino acids 25 to 48
T2 peptide: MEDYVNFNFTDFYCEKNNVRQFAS
Protocol: as §1

[3] = biological target: T3, biotin-peptide MEDYVNFNFT (human); assay: ELISA biotin-peptide; scFv 0.15625 ug/mL; repI
T3 peptide: Biotin-MEDYVNFNFT
Protocol: as §1
(§2) ELISA with biotin-conjugated peptides (5 μg/mL) was performed very similar to described above with minor modifications.
(§3) A full curve ELISA was performed for each positive scFv/biotin-peptide pair in order to confirm previous results. Tables 15-17 show ELISA results of the dose-dependent full curve for each positive peptide with scFv “CCR9_HUM”, “Comp-2” and “Comp-3”, respectively.

[4] = biological target: T4, biotin-peptide TSSMEDYVNF (human); assay: ELISA biotin-peptide; scFv 0.15625 ug/mL; repI
T4 peptide: Biotin-TSSMEDYVNF
Protocol: as §1, §2, §3

[5] = biological target: T5, biotin-peptide SSMEDYVNFN (human); assay: ELISA biotin-peptide; scFv 0.15625 ug/mL; repI
T5 peptide: Biotin-SSMEDYVNFN
Protocol: as §1, §2, §3

[6] = biological target: T6, biotin-peptide SMEDYVNFNF (human); assay: ELISA biotin-peptide; scFv 0.15625 ug/mL; repI
T6 peptide: Biotin-SMEDYVNFNF
Protocol: as §1, §2, §3

[7] = biological target: T7, Peptide 1-BSA (MADDYGSEST-C conjugated to BSA) (human); assay: ELISA, BSA-conjugated peptide coated
T7 peptide: MADDYGSESTC(BSA)
Protocol: (§4) In brief, plates with each non-conjugated peptide (50 μg/mL) or BSA-conjugated peptide (5 μg/mL) were coated in 0.58M carbonate-bicarbonate buffer pH9.5, 100 μL/well, at 4° C. […] After washing, wells were incubated with the 3, 3′,5,5′-Tetramethylbenzidine (TMB) HRP substrate and reactions were stopped with 2M HCl and OD450 was recorded.

[8] = biological target: T8, Peptide 2-BSA (GSESTSSMED-C conjugated to BSA) (human); assay: ELISA, BSA-conjugated peptide coated
T8 peptide: GSESTSSMEDC(BSA)
Protocol: as §4

[9] = biological target: T9, Peptide 4, non-conjugated (SMEDYVNFNF-C) (human); assay: ELISA; Ab 0.5 ug/mL; repII
T9 construct: With the extra C-terminal Cys
T9 peptide: SMEDYVNFNFC
Protocol: as §4

[10] = biological target: T10, human CCR9 on cells (MOLT-4, SupT1) (human, UniProt P51686 1-369); assay: flow cytometry on 300.19 cells overexpressing human CCR9 against CCR9-negative 300.19 WT cells, detection with anti-mouse-IgG(H+L) A647 [Cont.) B]
T10 construct: whole, on cells; also called C-C chemokine receptor type 9; CDw199
T10 sequence (looked up): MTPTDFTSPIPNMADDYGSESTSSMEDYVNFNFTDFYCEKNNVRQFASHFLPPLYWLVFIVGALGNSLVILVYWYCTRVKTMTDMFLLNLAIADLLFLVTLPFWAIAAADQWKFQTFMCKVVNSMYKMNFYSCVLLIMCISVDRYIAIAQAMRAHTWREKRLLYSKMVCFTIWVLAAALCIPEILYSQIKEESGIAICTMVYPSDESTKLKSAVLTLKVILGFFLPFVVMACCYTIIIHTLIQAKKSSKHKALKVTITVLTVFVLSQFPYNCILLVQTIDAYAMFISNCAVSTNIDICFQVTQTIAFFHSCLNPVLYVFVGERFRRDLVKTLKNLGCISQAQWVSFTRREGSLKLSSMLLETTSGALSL

[11] = biological target: T11, BSA (negative control coating) (bovine, UniProt P02769 25-607); assay: ELISA; Ab 0.01563 ug/mL; repII
T11 construct: also called Negative control BSA
Protocol: as §4

[12] = biological target: T12, Peptide 1, non-conjugated (MADDYGSEST-C) (human); assay: ELISA; Ab 0.01563 ug/mL; repII
T12 construct: With the extra C-terminal Cys
T12 peptide: MADDYGSESTC
Protocol: as §4

[13] = biological target: T13, Peptide 3-BSA (SSMEDYVNFN-C conjugated to BSA) (human); assay: ELISA; Ab 0.01563 ug/mL; repII
T13 peptide: SSMEDYVNFNC(BSA)
Protocol: as §4

[14] = biological target: T14, Peptide 2, non-conjugated (GSESTSSMED-C) (human); assay: ELISA; Ab 0.01563 ug/mL; repII
T14 construct: With the extra C-terminal Cys
T14 peptide: GSESTSSMEDC
Protocol: as §4

[15] = biological target: T7, Peptide 1-BSA (MADDYGSEST-C conjugated …); assay: ELISA; Ab 0.01563 ug/mL; repII
Protocol: as §4

[16] = biological target: T8, Peptide 2-BSA (GSESTSSMED-C conjugated …); assay: ELISA; Ab 0.01563 ug/mL; repII
Protocol: as §4

[17] = biological target: T15, antigen peptide-BSA (immunisation peptide #1 MADDYGSESTSSMEDYVNFNF-C conjugated to BSA) (human, extra C-terminal Cys conjugated to BSA); assay: ELISA; Ab 0.01563 ug/mL; repII
T15 construct: also called Positive control antigen peptide-BSA; MADDY peptide
T15 peptide: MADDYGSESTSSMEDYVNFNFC
Protocol: as §4

[18] = biological target: T16, Peptide 3, non-conjugated (SSMEDYVNFN-C) (human); assay: ELISA; Ab 0.01563 ug/mL; repII
T16 construct: With the extra C-terminal Cys
T16 peptide: SSMEDYVNFNC
Protocol: as §4

[19] = biological target: T9, Peptide 4, non-conjugated (SMEDYVNFNF-C); assay: ELISA; Ab 0.01563 ug/mL; repII
Protocol: as §4

[20] = biological target: T17, Peptide 4-BSA (SMEDYVNFNF-C conjugated to BSA) (human); assay: ELISA; Ab 0.01563 ug/mL; repII
T17 peptide: SMEDYVNFNFC(BSA)
Protocol: as §4

T11 sequence (P02769 25-607 limits assumed): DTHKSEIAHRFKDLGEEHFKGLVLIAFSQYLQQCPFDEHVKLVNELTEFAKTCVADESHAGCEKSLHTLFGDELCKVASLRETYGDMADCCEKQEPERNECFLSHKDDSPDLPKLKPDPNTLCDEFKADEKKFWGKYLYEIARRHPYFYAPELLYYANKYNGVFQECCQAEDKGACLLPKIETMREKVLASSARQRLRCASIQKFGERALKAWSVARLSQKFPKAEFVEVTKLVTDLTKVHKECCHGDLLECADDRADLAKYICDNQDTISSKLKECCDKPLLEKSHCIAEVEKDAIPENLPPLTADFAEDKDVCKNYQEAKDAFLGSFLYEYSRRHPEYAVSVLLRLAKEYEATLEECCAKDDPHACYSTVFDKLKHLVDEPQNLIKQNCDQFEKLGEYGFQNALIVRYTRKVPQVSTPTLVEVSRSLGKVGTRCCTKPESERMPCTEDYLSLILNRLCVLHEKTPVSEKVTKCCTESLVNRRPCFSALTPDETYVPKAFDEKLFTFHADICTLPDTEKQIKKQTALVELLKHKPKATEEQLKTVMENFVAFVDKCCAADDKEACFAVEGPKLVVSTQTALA

B1: Comparative antibody 1 (Comp-1) scFv, SEQ ID NO: 10 from WO2023/037125 A1, His-tagged (scFv)
scFv: QVQLKESGPGLVQPSQTLSLTCTVSGFSVASYDMHWVRLPPGKGLEWMGIIWANGNTHYNSGLKSRLSISRDTSKSQVFLKMNSLQTEDTAIYFCTRGGFAYWGQGTLVTVSSGGGGSGGGGSGGGGSGGGGSDVVMTQTPVSLSVSLGGQVSISCRSSQSLVHNNGNTYLSWYLQKPGQSPQLLIYKVSNRFSGVSDRFSGSGSGTDFTLKISRVEPDDLGVYYCGQGTQYPTFGGGTKLELKHHHHHH
B1: no binding [1]; no binding [2].

B2: CCR9_HUM2 scFv (humanized anti-CCR9 scFv, SEQ ID NO: 17 with C-terminal 6xHis tag) (scFv)
scFv: QVQLVQSGAEVKKPGASVKVSCTASGYSFTDYIIYWVKQAHGQSLEWMGYIDPNNYNTRYSQKFQGKVTITVDKSSTSAYMELNSLTSDDTAVYYCARDVYWGQGTTVTVSSGGGGSGGGGSGGGGSGGGGSDVVMTQTPLSLSVTPGQPASISCRSSQSLVHSNGKTYLQWYLQKPGQSPKLLIYKVSNRFSGVPDRFSGSGSGTDFTLKISRVEAEDVGVYFCAQSTHVWTFGGGTKVEIKRAHHHHHH
For B2, the OD450 [3] was 1.41 OD, the OD450 [4] was 0.22 OD and the OD450 [5] was 1.64 OD. The OD450 [6] was 1.63 OD.

B3: anti-CCR9 antibody clone 115 (murine, from hybridoma #115) (antibody, V domains shown)
VH: QVQLKQSGPELVKPGTSVRVSCTASGYSFTDYIIYWVKQSHGRSLEWIGYIDPNNYNTRYSQKFKGKATLTVDKSSTSAFMHLNSLTSDDSAVYYCARDVYWGQGTTLTVSS
VL: DVVMTQTPLSLTVSLGDQASISCRSSQSLVHSNGKTYLQWYLQKPGQSPKLLIYKVSNRFSGVPDRFSGSGSGTDFTLKISRVEAEDLGVYFCAQSTHVWTFGGGTKLEIKR
notes: Mouse IgG1
B3 was tested, and the binding result [7] was “no binding (tested: 1 ug/mL)”, the binding result [8] was “no binding (tested: 1 ug/mL)” and the OD450 [9] was 2.37 OD. For the same binder, the binding result [10] was “binds”, the OD450 [11] was 0.01 OD and the OD450 [12] was 0.01 OD. For the same binder, the OD450 [13] was 1.34 OD, the OD450 [14] was 0.01 OD and the OD450 [15] was 0.01 OD. The OD450 [16] was 0.01 OD, the OD450 [17] was 1.21 OD and the OD450 [18] was 1.4 OD. For the same binder, the OD450 [19] was 0.46 OD and the OD450 [20] was 1.03 OD.
